Assay results reported in patent US20230112123A1.

Key:
[1] = target: human CD70 (human) (UniProt P32970); experiment: FACS binding; Raji cells
[2] = target: human CD70 (human) (UniProt P32970); experiment: FACS binding; U266 cells
[3] = target: human CD70 (human) (UniProt P32970); experiment: FACS binding; CHO-CD70 cells

Chain of human CD70 (human) (P32970 whole entry): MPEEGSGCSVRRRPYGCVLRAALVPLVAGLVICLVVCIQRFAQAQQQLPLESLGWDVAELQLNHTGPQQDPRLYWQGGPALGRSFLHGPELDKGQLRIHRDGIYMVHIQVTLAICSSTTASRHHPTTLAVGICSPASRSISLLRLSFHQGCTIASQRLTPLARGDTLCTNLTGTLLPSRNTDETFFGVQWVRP

Row | EC50 [1] [nM] | EC50 [2] | EC50 [3] [µg/mL] | Substance
1 | 2.16 | 0.671 nM |  | Cusatuzumab
2 |  | 0.0715 µg/mL | 0.501 | IMM40C
